Data: patent publication US20240376185A1 (SMIVET B V, published 2024)

Columns and labels:
[1] = biological target: T1, tetanus neurotoxin (TeNT), authentic tetanus holotoxin (Clostridium tetani, UniProt P04958 2-1315); test: GT1b-TeNT inhibition ELISA
[2] = biological target: T1, tetanus neurotoxin (TeNT), authentic …; test: ELISA: directly coated TeNT, goat anti-llama Ig PO
[3] = biological target: T1, tetanus neurotoxin (TeNT), authentic …; test: ELISA: directly coated TeNT, goat anti-llama Ig PO; remark: listed apart in the source
[4] = biological target: T2, horse albumin (horse Alb) (horse, UniProt P35747 25-607); test: bridging ELISA: cAb-TT2-captured TeNT, SDA, biotinylated horse Alb, StrepPO
dog albumin (dog Alb) [5] = biological target: T3, dog albumin (dog Alb) (dog, UniProt P49822 25-608); test: ELISA: coated dog Alb, anti-his6 PO
T3 construct: also called Canine albumin

[6] = biological target: T1, tetanus neurotoxin (TeNT), authentic …; test: ELISA: directly coated TeNT, anti-his6 PO
[7] = biological target: T2, horse albumin (horse Alb); test: bridging ELISA: cAb-TT2-captured TeNT, SDA, biotinylated horse Alb, StrepPO; remark: listed apart in the source
[8] = biological target: T1, tetanus neurotoxin (TeNT), authentic …; test: bridging ELISA: coated TeNT, SDA, biotinylated TeNT, StrepPO (bivalent binding)
dog albumin (dog Alb) [9] = biological target: T3, dog albumin (dog Alb); test: ELISA: coated dog Alb, anti-his6 PO; remark: listed apart in the source
[10] = biological target: T1, tetanus neurotoxin (TeNT), authentic …; test: bridging ELISA: coated TeNT, SDA, biotinylated TeNT, StrepPO (bivalent binding); remark: listed apart in the source
[11] = biological target: T1, tetanus neurotoxin (TeNT), authentic …; test: ELISA: directly coated TeNT, anti-his6 PO; remark: listed apart in the source
[12] = biological target: T1, tetanus neurotoxin (TeNT), authentic …; test: GT1b-TeNT inhibition ELISA; remark: listed apart in the source
[13] = biological target: T1, tetanus neurotoxin (TeNT), authentic …; test: BLI (Octet Red96): biotinylated TeNT on SA sensor, SDA as analyte
horse serum albumin = biological target: T4, horse serum albumin (horse, UniProt P35747 25-607); test: BLI, Octet Red96
T4 construct: mature; also called horse Alb; Equine albumin

Cat albumin [14] = biological target: T5, Cat albumin (cat, UniProt P49064 25-608); test: BLI (Octet Red96), SDA on Ni-NTA sensor, albumin as analyte
T5 construct: also called Feline albumin; Feline Alb

Dog albumin [15] = biological target: T6, Dog albumin (dog, UniProt P49822 25-608); test: as above
T6 construct: also called Canine albumin; Canine Alb

Swine albumin [16] = biological target: T7, Swine albumin (swine, UniProt P08835 25-607); test: as above
T7 construct: also called Porcine Alb

Horse albumin [17] = biological target: T8, Horse albumin (horse, UniProt P35747 25-607); test: as above
T8 construct: also called Equine albumin; Equine Alb

chicken ovalbumin [18] = biological target: T9, chicken ovalbumin (chicken, UniProt P01012 2-386); test: ELISA; A450 below 0.2 at highest SDA concentration
T9 construct: also called Chicken Alb
T9 sequence (looked up): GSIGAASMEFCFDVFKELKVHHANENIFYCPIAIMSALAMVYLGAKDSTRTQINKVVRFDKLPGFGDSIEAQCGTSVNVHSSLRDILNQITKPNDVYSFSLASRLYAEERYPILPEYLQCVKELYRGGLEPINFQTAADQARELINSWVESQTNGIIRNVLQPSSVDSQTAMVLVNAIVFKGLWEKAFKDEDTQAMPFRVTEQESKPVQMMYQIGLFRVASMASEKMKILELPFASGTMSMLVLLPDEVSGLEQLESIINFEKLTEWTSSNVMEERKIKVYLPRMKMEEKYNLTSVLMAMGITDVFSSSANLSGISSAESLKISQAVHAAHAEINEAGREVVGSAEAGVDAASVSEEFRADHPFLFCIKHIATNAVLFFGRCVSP

sheep albumin [19] = biological target: T10, sheep albumin (sheep, UniProt P14639 25-607); test: ELISA; A450 below 0.2 at highest SDA concentration
human albumin [20] = biological target: T11, human albumin (human, UniProt P02768 25-609); test: ELISA; A450 below 0.2 at highest SDA concentration
bovine albumin [21] = biological target: T12, bovine albumin (bovine, UniProt P02769 25-607); test: ELISA; A450 below 0.2 at highest SDA concentration
swine albumin [22] = biological target: T13, swine albumin (swine, UniProt P08835 25-607); test: ELISA on coated albumin
T13 construct: also called Porcine albumin

chicken ovalbumin [23] = biological target: T9, chicken ovalbumin; test: ELISA on coated albumin
sheep albumin [24] = biological target: T10, sheep albumin; test: ELISA on coated albumin
mouse albumin = mouse albumin (mouse, UniProt P07724 25-608); test: ELISA on coated albumin
human albumin [25] = biological target: T11, human albumin; test: ELISA on coated albumin
dog albumin [26] = biological target: T14, dog albumin (dog, UniProt P49822 25-608); test: ELISA on coated albumin
T14 construct: also called Canine albumin

horse albumin [27] = biological target: T15, horse albumin (horse, UniProt P35747 25-607); test: ELISA on coated albumin
T15 construct: also called Equine albumin

bovine albumin [28] = biological target: T12, bovine albumin; test: ELISA on coated albumin
cat albumin [29] = biological target: T16, cat albumin (cat, UniProt P49064 25-608); test: ELISA on cat albumin captured from serum
T16 construct: also called Feline albumin

B1: SVT15-3FW4M-GS2-SVA12M2-H6 (bispecific antibody)
chain: QVQLQESGGGLVQTGGSLRLSCRASGRAFANYHFGWFRQAPGKDREFVASISWKGGSTYYANFALGRFTSSVDRAESSVYLQMSGLTPEDTATYYCAAHDGGDWNYHTGMDYWGQGTQVTVSSGGGGSGGGSEVQLVESGGGLVQAGGSLRLSCAASGRTFSYYPMAWFRQAPGQEREFVAAIIGADTTYYADSLKGRFTISRDNAKNMVYLQMNSLKPEDTAVYYCAARNTYWSDVYYREGQYTNWGQGTQVTVSSHHHHHH
Q: With B1 as the binder, how does the “minimal absorbance value (GT1b-TeNT inhibition)” value [1] read?
A: 0.15 A450

Q: And the “Effective SDA Concentration at A450 0.15” value [2]?
A: 2 ng/mL

Q: What about the maximal absorbance value [3] of the same binder?
A: 1.36 A450

Q: What about the maximal absorbance value [4] of the same binder?
A: 1.34 A450

Q: What about the maximal absorbance value (dog albumin (dog Alb) [5]) of the same binder?
A: 1.55 A450

Q: What about the maximal absorbance value [6] of the same binder?
A: 1.35 A450

Q: What about the “Effective SDA Concentration at A450 0.7” value [7] of the same binder?
A: 3.9 ng/mL

Q: What about the “Effective SDA Concentration at A450 0.3” value [8] of the same binder?
A: 33 ng/mL

Q: What about the “Effective SDA Concentration at A450 0.2” value (dog albumin (dog Alb) [9]) of the same binder?
A: 76 ng/mL

Q: What about the maximal absorbance value [10] of the same binder?
A: 0.64 A450

Q: What about the “Effective SDA Concentration at A450 0.15” value [11] of the same binder?
A: 8 ng/mL

Q: What about the “Effective SDA Concentration at A450 0.56” value [12] of the same binder?
A: 78 ng/mL

B2: SVT06-GS2-SVA12M2-H6 (bispecific antibody)
chain: QVQLQESGGGSVQAGGSLRLSCTASELSYDDYTIAWFRRAAGEGRVEDGEGVASITKSYDRAYDNKINYGHSVKGRFTISRDNAKNTVYLQMTDLLPSDTAVYYCALDITPPGGVGASLTEGFLFDYWGQGTQVTVSSGGGGSGGGSEVQLVESGGGLVQAGGSLRLSCAASGRTFSYYPMAWFRQAPGQEREFVAAIIGADTTYYADSLKGRFTISRDNAKNMVYLQMNSLKPEDTAVYYCAARNTYWSDVYYREGQYTNWGQGTQVTVSSHHHHHH
Q: For B2, which “minimal absorbance value (GT1b-TeNT inhibition)” value [1] is on record?
A: 0.18 A450

Q: What about the “Effective SDA Concentration at A450 0.15” value [2] of the same binder?
A: 1.1 ng/mL

Q: What about the maximal absorbance value [3] of the same binder?
A: 1.21 A450

Q: And the maximal absorbance value [4]?
A: 1.47 A450

Q: What about the maximal absorbance value (dog albumin (dog Alb) [5]) of the same binder?
A: 1.67 A450

Q: And the maximal absorbance value [6]?
A: 1.59 A450

Q: And the Kd [13]?
A: 0.151 nM

Q: And the koff [13]?
A: 8.9e-05 s⁻¹

Q: What about the kon [13] of the same binder?
A: 591000 M⁻¹ s⁻¹

Q: What about the “Effective SDA Concentration at A450 0.7” value [7] of the same binder?
A: 1.5 ng/mL

Q: And the “Effective SDA Concentration at A450 0.3” value [8]?
A: 19 ng/mL

Q: And the “Effective SDA Concentration at A450 0.2” value (dog albumin (dog Alb) [9])?
A: 39 ng/mL

Q: And the maximal absorbance value [10]?
A: 0.66 A450

Q: What about the “Effective SDA Concentration at A450 0.15” value [11] of the same binder?
A: 3.5 ng/mL

Q: And the “Effective SDA Concentration at A450 0.56” value [12]?
A: 55 ng/mL

B3: SVG13L (VHH)
VHH: QVQLQESGGGLVQPGGSLRLSCEASGFTFDDYGMSWVRQAPGKGLEWVSSLTPNGGSTYYADSVKGRFTISRDNAKNTLYLQMNSLKPEDTALYYCAKNSYYGAMDYWGKGTLVTVSS
notes: yeast-produced
Q: Does B3 bind (horse serum albumin)?
A: no binding (tested: 100 nM)

B4: SVT16-L123Q-GS2-SVG13M4-H6 (bispecific antibody)
chain: QVQLQESGGGSVQAGDSLRLSCAASGRTISNYAMGWFRQAPGKQREFVAAISRSDNTYYTDSVKGRFTISRDNAKNTLYLQMNSLKPEETAVYYCAADPNLMYESKWKYRALEAWGQGTQVTVSSGGGGSGGGSEVQLVESGGGLVQPGGSLRLSCEASGFTFDDYGMSWVRQAPGKGLEWVSSLTPNGGSTYYADSVKGRFTISRDNAKNTLYLQMNSLKPEDTALYYCAKNSYYGAMDYWGQGTQVTVSSHHHHHH
Q: Does B4 bind (horse serum albumin)?
A: no binding (tested: 100 nM)

B5: SVA12L (VHH)
VHH: QVQLQESGGGLVQAGGSLRLSCAASGRTFSYYPMAWFRQAPGQEREFVAAIIGADTTYYADSLKGRFTISRDNAKNMVYLQMNSLKPEDTAVYYCAARNTYWSDVYYREGQYTNWGQGTQVTVSS
Q: How did the Kd (Cat albumin [14]) turn out when B5 was run?
A: 19 nM

Q: What about the koff (Cat albumin [14]) of the same binder?
A: 0.000737 s⁻¹

Q: And the kon (Cat albumin [14])?
A: 38800 M⁻¹ s⁻¹

Q: And the Kd (Dog albumin [15])?
A: 271 nM

Q: And the koff (Dog albumin [15])?
A: 0.0125 s⁻¹

Q: What about the kon (Dog albumin [15]) of the same binder?
A: 45900 M⁻¹ s⁻¹

Q: What about the Kd (Swine albumin [16]) of the same binder?
A: 159 nM

Q: And the koff (Swine albumin [16])?
A: 0.0238 s⁻¹

Q: And the kon (Swine albumin [16])?
A: 150000 M⁻¹ s⁻¹

Q: And the Kd (Horse albumin [17])?
A: 10.7 nM

Q: What about the koff (Horse albumin [17]) of the same binder?
A: 0.00109 s⁻¹

Q: And the kon (Horse albumin [17])?
A: 101000 M⁻¹ s⁻¹

B6: SVA06L (VHH)
VHH: QVQLQESGGRLVQAEDSLRLSCAASGRTFVSYDMGWFRQAPGKEREFVAAINWRGYTTDYVDSVKGRFFISRDIAKSTVYLQMNNLKPEDTAVYYCAARQMSGSSRYSPPGRVGYDFWGQGTQVTVSS
Q: What does the source list for B6?
A: binding result (chicken ovalbumin [18]): no binding (tested: 1000 ng/ml); binding result (sheep albumin [19]): no binding (tested: 1000 ng/ml); binding result (human albumin [20]): no binding (tested: 1000 ng/ml); binding result (bovine albumin [21]): no binding (tested: 1000 ng/ml); SDA Effective Concentration resulting in A450 nm = 0.2 (swine albumin [22]): 344 ng/mL; maximal absorbance value at 450 nm (swine albumin [22]): 0.288 A450; maximal absorbance value at 450 nm (chicken ovalbumin [23]): 0.054 A450; maximal absorbance value at 450 nm (sheep albumin [24]): 0.052 A450; SDA Effective Concentration resulting in A450 nm = 0.2 (mouse albumin): 180 ng/mL; maximal absorbance value at 450 nm (mouse albumin): 0.36 A450; maximal absorbance value at 450 nm (human albumin [25]): 0.05 A450; SDA Effective Concentration resulting in A450 nm = 0.2 (dog albumin [26]): 51 ng/mL; maximal absorbance value at 450 nm (dog albumin [26]): 0.921 A450; SDA Effective Concentration resulting in A450 nm = 0.2 (horse albumin [27]): 235 ng/mL; maximal absorbance value at 450 nm (horse albumin [27]): 0.483 A450; maximal absorbance value at 450 nm (bovine albumin [28]): 0.052 A450; maximal absorbance value at 450 nm (cat albumin [29]): 0.158 A450
